Several values for one entry are separate records, joined by “and”; a condition that tells them apart may be missing. Equal values may be shown once.
Tests used:
[1] = target: TV0924 (TREVI0001_0924), acetate kinase from Treponema vincentii (Treponema vincentii); assay: mass photometry; TwoMP (Refeyn), sample diluted in PBS, ca. 10 nM in the droplet, 60-s movie; self-association
[2] = target: TV0924 (TREVI0001_0924), acetate kinase from Treponema vincentii (Treponema vincentii); assay: AUC; sedimentation velocity, 20°C, Buffer A (20 mM HEPES, 0.1 M NaCl, pH 7.5, 2 mM n-octyl-β-D-glucopyranoside), 50,000 rpm, absorbance at 280 nm, c(s) analysis in SEDFIT; self-association
[3] = target: T1, TV0924 (TREVI0001_0924; rTV0924; TvAckA) (Treponema vincentii, UniProt C8PR54); assay: X-ray crystal structure, […] Å; assay type: binding; settings: active site; co-crystallised with 5 mM ADP and 5 mM MgCl2, pH 5.5; modelled as AMP, may be hydrolysed ADP or ADP with disordered beta-phosphate
T1 construct: gene ackA; homodimer, calculated dimer mass 104,820 g/mol
T1 sequence (C8PR54 1-449): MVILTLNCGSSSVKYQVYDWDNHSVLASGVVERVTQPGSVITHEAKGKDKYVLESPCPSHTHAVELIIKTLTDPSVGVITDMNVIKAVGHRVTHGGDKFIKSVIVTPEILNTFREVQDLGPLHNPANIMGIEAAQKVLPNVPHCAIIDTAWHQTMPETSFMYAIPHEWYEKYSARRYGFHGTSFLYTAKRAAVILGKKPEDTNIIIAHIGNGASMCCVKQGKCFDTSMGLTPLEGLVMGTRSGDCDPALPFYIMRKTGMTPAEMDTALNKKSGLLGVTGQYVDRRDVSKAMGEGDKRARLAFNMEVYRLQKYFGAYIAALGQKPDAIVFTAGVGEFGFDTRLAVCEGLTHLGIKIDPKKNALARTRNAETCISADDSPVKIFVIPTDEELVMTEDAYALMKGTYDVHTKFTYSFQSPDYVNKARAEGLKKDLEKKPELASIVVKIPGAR

purified protein [4] = substrate: CC(=O)OP(=O)(O)O; assay: purified protein; assay type: biochemical, Treponema vincentii; settings: ATP-forming direction, ADP up to 5 mM, 20 mM MgCl2, 100 mM HEPES pH 7.5, 100 mM NaCl, 37 °C
purified protein [5] = substrate: Nc1ncnc2c1ncn2[C@@H]1O[C@H](COP(=O)(O)OP(=O)(O)O)[C@@H](O)[C@H]1O; assay: purified protein; assay type: biochemical, Treponema vincentii; settings: ATP-forming direction, acetyl phosphate up to 10 mM, 20 mM MgCl2, 100 mM HEPES pH 7.5, 100 mM NaCl, 37 °C
purified protein [6] = substrate: CC(=O)OP(=O)(O)O; assay: purified protein; assay type: biochemical, Treponema pallidum; settings: ATP-forming direction, ADP up to 5 mM, 20 mM MgCl2, 100 mM HEPES pH 7.5, 100 mM NaCl, 37 °C
purified protein [7] = substrate: Nc1ncnc2c1ncn2[C@@H]1O[C@H](COP(=O)(O)OP(=O)(O)O)[C@@H](O)[C@H]1O; assay: purified protein; assay type: biochemical, Treponema pallidum; settings: ATP-forming direction, acetyl phosphate up to 10 mM, 20 mM MgCl2, 100 mM HEPES pH 7.5, 100 mM NaCl, 37 °C
[8] = target: the molecule itself; assay: mass photometry; TwoMP (Refeyn), sample diluted in PBS, ca. 10 nM in the droplet, 60-s movie; self-association
[9] = target: the molecule itself; assay: AUC; sedimentation velocity, 20°C, Buffer A (20 mM HEPES, 0.1 M NaCl, pH 7.5, 2 mM n-octyl-β-D-glucopyranoside), 50,000 rpm, absorbance at 280 nm, c(s) analysis in SEDFIT; self-association

Molecule: TV0924 (TREVI0001_0924), acetate kinase from Treponema vincentii (enzyme)
- stoichiometry N [1]: 2
- stoichiometry N [2]: 2

Molecule: Nc1ncnc2c1ncn2[C@@H]1O[C@H](COP(=O)(O)O)[C@@H](O)[C@H]1O [AMP]
- X-ray crystal structure, 1.30 Å [3]: The nucleotide was modeled as AMP, and we refer to this structure below as TV0924‧AMP.

B1: TV0924 (TREVI0001_0924; rTV0924; TvAckA) (Treponema vincentii ATCC 35580) (protein)
chain: T1 sequence (C8PR54 1-449)
notes: homodimer, calculated dimer mass 104,820 g/mol
- Km (purified protein [4]): 320 ± 30 µM
- kcat (purified protein [4]): 3900 ± 300 s⁻¹
- kcat/Km (purified protein [4]): 1.19e+07 ± 400000 M⁻¹ s⁻¹
- Km (purified protein [5]): 650 ± 30 µM
- kcat (purified protein [5]): 4800 ± 400 s⁻¹
- kcat/Km (purified protein [5]): 7.5e+06 ± 400000 M⁻¹ s⁻¹

B2: TP0476, acetate kinase from Treponema pallidum (enzyme, UniProt O83489 1-448, looked up)
chain: MIILTLNCGSSSVKYQVYNWTERAVIAVGVVERVTQAGSVITHEVHGRENHVRESPCPTHTEAVQLIISTLTDAHVGVISDMSLIKAVGHRVLHAADRFVKSVVVTPDVLETFRSVQDLGPLHNPANIRGIEAAQAVIPSVPHCAIMDTAWHQTMPEASFMYAVPRQWYEEYAVRRYGFHGTSFLYTAKRASVILKKRAEDTNIIIAHIGNGASMCCVKNGVSFDTSMGITPLEGLIMGTRCGDCDPALAFYIMRKTGMSVSDIDTTLNKQSGLLGITGKYVDRRDVCAAMKNGDALARLAFDMEVHRIRKYFGAYVAALGKQPDALVFTAGVGEMCCDVRAAACAGLEHLGIRLDARKNELARTRNAETEISTDDSPVRILVIPTDEELVMTEDTYALMQGTYDVHTRFTYSFQDPTYVNKARAAGLKRDLEKNPALATIVVPRLDT
notes: Acetate kinase TP0476 of Treponema pallidum, amino acid residues 1-448; The dominant species is a dimer; monomer, trimer, tetramer and aggregates were also seen; also called rTP0476; TpAckA
- Km (purified protein [6]): 380 ± 19 µM
- kcat (purified protein [6]): 51.5 ± 0.8 s⁻¹
- kcat/Km (purified protein [6]): 137000 ± 11000 M⁻¹ s⁻¹
- Km (purified protein [7]): 650 ± 70 µM
- kcat (purified protein [7]): 63.3 ± 1.5 s⁻¹
- kcat/Km (purified protein [7]): 90000 ± 10000 M⁻¹ s⁻¹
- stoichiometry N [8]: 3 and 4
- stoichiometry N [9]: 2

— article PMC11717252, “Biophysical and biochemical evidence for the role of acetate kinases (AckAs) in an acetogenic pathway in pathogenic spirochetes” (PLOS ONE, 2025)
